Patent US20240409639A1 (published 2024)

Columns and labels:
human FcRn [1] = assay: BLI (Octet); pH 7.2
human FcRn [2] = assay: BLI (Octet); pH 6.0
ILT4 HIS = assay: BLI (Octet)
FcγRI = assay: BLI (Octet)
FcγRIIIa = assay: BLI (Octet)
PD-1 HIS = assay: BLI (Octet)

Kd (human FcRn [1]): 114 nM
Kd (human FcRn [2]): 2.99 nM
Kd (ILT4 HIS): 0.305 nM
Kd (FcγRI): 1380 nM
Kd (FcγRIIIa): 4910 nM
Kd (PD-1 HIS): 0.063 nM
B1: CDX-585 (bispecific antibody)
heavy: QVQLVQSGAEVVKPGASVKISCKASGYTFTDYVMHWVRQAPGQSLEWMGVISTYHIPAVYNQKFKGKATMTVDTSTSTVYLELSSLRSEDTAVYYCAREVYGESYYFDVWGQGTTVTVSSASTKGPSVFPLAPSSKSTSGGTAALGCLVKDYFPEPVTVSWNSGALTSGVHTFPAVLQSSGLYSLSSVVTVPSSSLGTQTYICNVNHKPSNTKVDKKVEPKSCDKTHTCPPCPAPEAQGGPSVFLFPPKPKDTLYITREPEVTCVVVDVSHEDPEVKFNWYVDGVEVHNAKTKPREEQYNSTYRVVSVLTVLHQDWLNGKEYKCQVSNKALPAPIEKTISKAKGQPREPQVYTLPPSRDELTKNQVSLTCLVKGFYPSDIAVEWESNGQPENNYKTTPPVLDSDGSFFLYSKLTVDKSRWQQGNVFSCSVMHEALHNHYTQKSLSLSPGKGSSGGGGSDIQMTQSPSSLSASVGDRVTITCRASENIYSYLAWYQQKPGKAPKFLVYNADTLAEGVPSRFSGSGSGTDFTLTISSLQPEDFATYYCQHHYGTPFTFGCGTKLEIKGGGGSGGGGSGGGGSGGGGSQVQLVQSGAEVKKPGASVKVSCKASGYSFTGYTMHWVRQAPGQCLEWMGLINPYTGGTDYNQKFQGRVTMTVDRSTSTAYMELSSLRSEDTAVYYCARERPGGSQFIYYYALDYWGQGTTVTVSS
light: DIVMTQTPLSLPVTPGEPASISCRSSQSIVHSAGNTYLEWYLQKPGQSPQLLIYKVSNRFSGVPDRFSGSGSGTDFTLKISRVEAEDVGVYYCFQGSHVPYTFGGGTKVEIKRTVAAPSVFIFPPSDEQLKSGTASVVCLLNNFYPREAKVQWKVDNALQSGNSQESVTEQDSKDSTYSLSSTLTLSKADYEKHKVYACEVTHQGLSSPVTKSFNRGEC
